Sequences and labels used below:
B1: STK38L (parent)
chain: NWKETLVFPPEVPISEKAKDLILR
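Also: lentivirally expressed fusions sorted by FACS into six bins by GFP to DsRed ratio, PSI derived from sequencing read proportions per bin multiplied by bin number.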

The variants in this data set derive from B1. The experiment in a line: protein stability index of a GFP-peptide fusion (GPS, HEK-293T) (PSI 1-6); higher = more stable. The settings on record: c terminus: a fixed tail appended.
Consider NWKETLVFPPEVPISEKAKDLIVR [L23V], for which the protein stability index came out at 3.27. In the case of NWKETLVFPPEVPISEKAKDLIER [L23E] it was 4.15; in that of NWKETLVFPPEVPISEKAKDLIHR [L23H], 3.78; in that of NWKETLVFPPEVPISEKAKDLISR [L23S], 3.94. In the case of NWKETLVFPPEVPISEKAKDLIGR [L23G] it was 4.47; in that of NWKETLVFPPEVPISEKAKDLIWR [L23W], 2.12; in that of NWKETLVFPPEVPISEKAKDLIYR [L23Y], 2.99.

With NWKETLVFPPEVPISEKAKDLIRR [L23R], the protein stability index came out at 4.19.

For the variant NWKETLVFPPEVPISEKAKDLIQR [L23Q], the protein stability index amounted to 4.22. As for NWKETLVFPPEVPISEKAKDLIDR [L23D], the protein stability index is 4.92. Next, NWKETLVFPPEVPISEKAKDLIAR [L23A]: 3.75; NWKETLVFPPEVPISEKAKDLIMR [L23M]: 2.6; NWKETLVFPPEVPISEKAKDLIKR [L23K]: 4.24. Take NWKETLVFPPEVPISEKAKDLICR [L23C]: the protein stability index turned out to be 3.36.

For NWKETLVFPPEVPISEKAKDLIPR [L23P], the protein stability index is 3.9.

With NWKETLVFPPEVPISEKAKDLINR [L23N], the protein stability index was 4.09. For the variant NWKETLVFPPEVPISEKAKDLIIR [L23I], the protein stability index was determined as 3.24. Next, NWKETLVFPPEVPISEKAKDLIFR [L23F]: 2.9. Next, NWKETLVFPPEVPISEKAKDLITR [L23T]: 3.77.

Take NWKETLVFPPEVPIFEKAKDLILR [S15F]: the protein stability index came out at 2.44.

Regarding NWKETLVFPPEVPIWEKAKDLILR [S15W], the protein stability index came out at 2.

As to NWKETLVFPPEVPIREKAKDLILR [S15R], the protein stability index amounted to 2.79.

For NWKETLVFPPEVPIHEKAKDLILR [S15H], the protein stability index came out at 2.68. As to NWKETLVFPPEVPICEKAKDLILR [S15C], the protein stability index came to 3.67. In the case of NWKETLVFPPEVPILEKAKDLILR [S15L] it was 1.84; in that of NWKETLVFPPEVPIQEKAKDLILR [S15Q], 3.87. In the case of NWKETLVFPPEVPIGEKAKDLILR [S15G] it was 2.92.

In the case of NWKETLVFPPEVPIYEKAKDLILR [S15Y], the protein stability index turned out to be 2.81.

With NWKETLVFPPEVPIEEKAKDLILR [S15E], the protein stability index stood at 4.21.

NWKETLVFPPEVPIKEKAKDLILR [S15K]: the protein stability index is 3.09.

On to NWKETLVFPPEVPINEKAKDLILR [S15N], for which the protein stability index was determined as 2.62. Next, NWKETLVFPPEVPIAEKAKDLILR [S15A]: 2.84; NWKETLVFPPEVPIIEKAKDLILR [S15I]: 1.89. In the case of NWKETLVFPPEVPIPEKAKDLILR [S15P] it was 2.68; in that of NWKETLVFPPEVPIDEKAKDLILR [S15D], 4.1; in that of NWKETLVFPPEVPIVEKAKDLILR [S15V], 2.31. Next, NWKETLVFPPEVPITEKAKDLILR [S15T]: 3.27; NWKETLVFPPEVPIMEKAKDLILR [S15M]: 3.37; NWKETLVFPPEVYISEKAKDLILR [P13Y]: 1.97. On to NWKETLVFPPEVTISEKAKDLILR [P13T], for which the protein stability index was 2.44. As for NWKETLVFPPEVVISEKAKDLILR [P13V], the protein stability index was 3.67. NWKETLVFPPEVSISEKAKDLILR [P13S]: the protein stability index is 3.92. As to NWKETLVFPPEVPISGKAKDLILR [E16G], the protein stability index is 2.31.

NWKETLVFPPEVPISYKAKDLILR [E16Y]: the protein stability index is 2.5. In the case of NWKETLVFPPEVPISCKAKDLILR [E16C] it was 2.7; in that of NWKETLVFPPEVPISQKAKDLILR [E16Q], 2.43. For the variant NWKETLVFPPEVPISVKAKDLILR [E16V], the protein stability index was 3.14. Consider NWKETLVFPPEVPISSKAKDLILR [E16S], for which the protein stability index was determined as 2.33. As for NWKETLVFPPEVPISFKAKDLILR [E16F], the protein stability index was determined as 2.04. Next, NWKETLVFPPEVPISMKAKDLILR [E16M]: 1.66; NWKETLVFPPEVPISDKAKDLILR [E16D]: 3.64. Regarding NWKETLVFPPEVPISKKAKDLILR [E16K], the protein stability index came to 2.17.

For the variant NWKETLVFPPEVPISAKAKDLILR [E16A], the protein stability index was 2.66. In the case of NWKETLVFPPEVPISNKAKDLILR [E16N] it was 3.3; in that of NWKETLVFPPEVPISIKAKDLILR [E16I], 2.14. Regarding NWKETLVFPPEVPISTKAKDLILR [E16T], the protein stability index is 2.6.

With NWKETLVFPPEVPISPKAKDLILR [E16P], the protein stability index stood at 3.02. Take NWKETLVFPPEVPISRKAKDLILR [E16R]: the protein stability index was found to be 2.48. In the case of NWKETLVFPPEVPISHKAKDLILR [E16H] it was 2.34; in that of NWKETLVFPPEVPISEKAKDCILR [L21C], 3.62; in that of NWKETLVFPPEVPISEKAKDAILR [L21A], 3.35.

Turning to NWKETLVFPPEVPISEKAKDWILR [L21W], the protein stability index stood at 2.58.

Take NWKETLVFPPEVPISEKAKDGILR [L21G]: the protein stability index stood at 3.81. In the case of NWKETLVFPPEVPISEKAKDFILR [L21F] it was 2.63; in that of NWKETLVFPPEVPISEKAKDYILR [L21Y], 2.71.

NWKETLVFPPEVPISEKAKDRILR [L21R]: the protein stability index was 3.62. On to NWKETLVFPPEVPISEKAKDVILR [L21V], for which the protein stability index is 3.53. For NWKETLVFPPEVPISEKAKDDILR [L21D], the protein stability index turned out to be 3.72. For the variant NWKETLVFPPEVPISEKAKDSILR [L21S], the protein stability index was determined as 3.72. In the case of NWKETLVFPPEVPISEKAKDTILR [L21T] it was 4.44; in that of NWKETLVFPPEVPISEKAKDIILR [L21I], 3.27. Turning to NWKETLVFPPEVPISEKAKDMILR [L21M], the protein stability index worked out at 3.42. Regarding NWKETLVFPPEVPISEKAKDEILR [L21E], the protein stability index is 4.66.

As to NWKETLVFPPEVPISEKAKDQILR [L21Q], the protein stability index was determined as 3.41.

Take NWKETLVFPPEVPISEKAKDPILR [L21P]: the protein stability index is 3.69. In the case of NWKETLVFPPEVPISEKAKDNILR [L21N] it was 3.56; in that of NWKETLVFPPEVPISEKAKDHILR [L21H], 3.48; in that of NWKETLVFPPEVPISEKGKDLILR [A18G], 3.21. Next, NWKETLVFPPEVPISEKSKDLILR [A18S]: 3.32; NWKETLVFPPEVPISEKCKDLILR [A18C]: 2.72; NWKETLVFPPEVPISEKVKDLILR [A18V]: 2.72.

Regarding NWKETLVFPPEVPISEKHKDLILR [A18H], the protein stability index turned out to be 2.54. Next, NWKETLVFPPEVPISEKKKDLILR [A18K]: 3.4; NWKETLVFPPEVPISEKIKDLILR [A18I]: 1.89; NWKETLVFPPEVPISEKWKDLILR [A18W]: 2.65. In the case of NWKETLVFPPEVPISEKMKDLILR [A18M] it was 2.39; in that of NWKETLVFPPEVPISEKTKDLILR [A18T], 3.41.

For the variant NWKETLVFPPEVPISEKYKDLILR [A18Y], the protein stability index was 2.45. In the case of NWKETLVFPPEVPISEKPKDLILR [A18P] it was 3.1; in that of NWKETLVFPPEVPISEKNKDLILR [A18N], 3.38; in that of NWKETLVFPPEVPISEKEKDLILR [A18E], 4.56. In the case of NWKETLVFPPEVPISEKLKDLILR [A18L] it was 1.8; in that of NWKETLVFPPEVPISEKDKDLILR [A18D], 3.76. For NWKETLVFPPEVPISEKQKDLILR [A18Q], the protein stability index was 3.57.
